Positions count from the first letter of the chain named. Names and notes keep the numbering of the source.
B1: H9-RET (H9 with L18R, Q22E and Q126T) (ligand)
chain: APTSSSTKKTQLQLEHLRLDLEMILNGINNYKNPKLTRMLTFKFYMPKKATELKHLQCLEEELKPLEEVLNLAQSKNFHFDPRDVVSNINVFVLELKGSETTFMCEYADETATIVEFLNRWITFCTSIISTLTHHHHHH
B2: IL-2 mutein H9 (ligand)
chain: B1 chain with R18L, E22Q, T126Q
notes: also called super-IL-2; super-2
B3: IL-2 mutein E10 (ligand)
chain: B1 chain with R18L, E22Q, Q74S, T126Q
B4: IL-2 mutein H4 (ligand)
chain: B1 chain with R18L, E22Q, Q74S, F80L, D81T, V86I, T126Q
B5: IL-2 mutein B1 (ligand)
chain: B1 chain with R18L, E22Q, Q74N, I89V, T126Q
B6: IL-2 mutein D10 (ligand)
chain: B1 chain with R18L, E22Q, Q74H, T126Q
notes: also called IL-2 D10; super-2
B7: IL-2 mutein C5 (ligand)
chain: B1 chain with R18L, E22Q, Q74N, F80V, D81T, T126Q
B8: IL-2 mutein G8 (ligand)
chain: B1 chain with R18L, E22Q, Q74N, T126Q
B9: yeast-displayed IL-2 clone G8 (ligand)
chain: APTSSSTKKTQLQLEHLLLDLQMILNGINNYKNPKLTRMLTFKFYMPKKATELKHLQCLEEELKPLEEVLNLANSKNFHFDPRDVVSNINVFVLELKGSETTFMCEYADETATIVEFLNRWITFCQSIISTLT
notes: Clone of the second generation yeast library; not shown: yeast display fusion partner and linker encoded by vector pCT302
B10: yeast-displayed IL-2 clone H4 (ligand)
chain: B9 chain with N74S, F80L, D81T, V86I
notes: as for B9
B11: yeast-displayed IL-2 clone D10 (ligand)
chain: B9 chain with N74H
notes: as for B9
B12: yeast-displayed IL-2 clone B1 (ligand)
chain: B9 chain with I89V
notes: as for B9
B13: yeast-displayed IL-2 clone H9 (ligand)
chain: B9 chain with N74Q
notes: as for B9
B14: yeast-displayed IL-2 clone E10 (ligand)
chain: B9 chain with N74S
notes: as for B9
B15: yeast-displayed IL-2 clone C5 (ligand)
chain: B9 chain with F80V, D81T
notes: as for B9

These molecules were tested against T1, human IL-2Rβ ectodomain (amino acids 1-214), C-terminal hexahistidine tag (human, UniProt P14784 27-240) (assay: SPR).
T1 construct: range 1-214; also called CD122; IL-2Rβ ECD
T1 sequence: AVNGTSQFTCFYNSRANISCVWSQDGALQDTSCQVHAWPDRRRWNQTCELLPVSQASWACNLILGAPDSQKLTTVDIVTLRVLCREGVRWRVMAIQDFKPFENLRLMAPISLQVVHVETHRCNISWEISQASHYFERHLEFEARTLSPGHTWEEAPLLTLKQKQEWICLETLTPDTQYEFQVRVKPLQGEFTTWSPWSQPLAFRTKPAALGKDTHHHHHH
Protocol: Dissociation was then tracked for 200 s. An irrelevant biotinylated protein was immobilized in the reference channel to subtract non-specific binding from the measurements. Experiments were carried out in HBS-P+ buffer (GE Healthcare) supplemented with 0.2% BSA at 25° C. All binding studies were performed at a flow rate of […] to minimize mass transport contributions and prevent rebinding of the analyte. For all measurements, data analysis and determination of equilibrium and kinetic parameters were implemented using the Biacore T100 evaluation software version 2.0 assuming a 1:1 Langmuir binding model.

Molecule	binding result
B1	binds

What follows are molecules tested against CD25 (IL-2Rα) on CD25+ YT-1 cells (human) (UniProt P01589) (assay: cell-based or functional assay).
CD25 (IL-2Rα) on CD25+ YT-1 cells (human), sequence (P01589 22-272): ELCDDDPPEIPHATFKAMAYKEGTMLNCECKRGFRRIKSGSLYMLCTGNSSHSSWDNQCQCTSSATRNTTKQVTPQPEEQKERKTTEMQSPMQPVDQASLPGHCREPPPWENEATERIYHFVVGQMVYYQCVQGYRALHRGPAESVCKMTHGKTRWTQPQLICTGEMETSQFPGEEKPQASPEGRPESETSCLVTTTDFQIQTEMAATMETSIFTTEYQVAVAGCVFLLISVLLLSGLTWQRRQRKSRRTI

Molecule	STAT5 phosphorylation dose response on CD25+ YT-1 cells [log]
IL-2 F42A (from UniProt P60568 21-153) (ligand)	1

The molecules below were run against T1, human IL-2Rβ ectodomain (amino acids …) (assay: surface plasmon resonance).

Molecule	Kd [nM]	koff [s⁻¹]	kon [M⁻¹ s⁻¹]
B2	1.4	0.0056	4.1e+06
B3	–	0.0055	–
B4	–	0.013	–
B5	–	0.005	–
B6	1.3	0.0051	4.1e+06
B7	–	0.016	–
B8	–	0.0049	–

These molecules were tested against T1, human IL-2Rβ ectodomain (amino acids …) (assay: SPR (Example 10), recombinant protein).

Molecule	Kd [nM]
B2	1.3
B3	1.3
B4	14
B5	1.6
B6	1.2
B7	10
B8	1.5

What follows are molecules tested against T2, biotinylated IL-2Rβ ectodomain (C-terminal biotin acceptor peptide and hexahistidine tag) (human, UniProt P14784 27-240, C-terminally biotinylated (biotin acceptor peptide, BirA ligase)) (assay: yeast clone screen: labeling with 5 nM IL-2Rβ and then SAV-PE).
T2 construct: range 1-214; Staining reagent for yeast; also called tetrameric IL-2Rβ; monomeric IL-2Rβ
T2 sequence: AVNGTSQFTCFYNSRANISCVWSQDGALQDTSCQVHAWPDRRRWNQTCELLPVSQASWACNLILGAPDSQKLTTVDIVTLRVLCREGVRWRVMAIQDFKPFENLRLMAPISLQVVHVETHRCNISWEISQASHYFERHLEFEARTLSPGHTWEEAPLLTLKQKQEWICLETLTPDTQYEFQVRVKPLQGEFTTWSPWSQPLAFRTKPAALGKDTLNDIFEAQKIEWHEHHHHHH
Protocol: Selection of second generation IL-2 library: The library was subjected to five rounds of selection against IL-2Rβ (FIG. 2B). This selection method was performed exactly as with the first generation library, only with modifications to the concentrations of IL-2Rβ used (round 1—1 μM, round 2—100 nM, round 3—30 nM, round 4—30 nM, round 5—10 nM, all monomeric IL-2Rβ). Upon conclusion of selections, round four and round five yeast cultures were spread on SD-CAA plates, which yielded individual yeast colonies. 48 individual yeast clones from both rounds were grown in 96-well block format and screened by labeling with 5 nM IL-2Rβ and then SAV-PE.

Molecule	binding result
B9	binds
B10	binds
B11	binds
B12	binds
B13	binds
B14	binds
B15	binds

What follows are molecules tested against T1, human IL-2Rβ ectodomain (amino acids …) (assay: SPR affinities of D10 and wild-type IL-2, told with the structure).

Molecule	fold affinity gain [fold]
B6	~300

Reference: patent publication US20190119346A1 (Stanford University, published 2019)
